# Results: the nanobody polyreactivity screen of Harvey et al. (2022)
# Assay: yeast display, Sf9 membrane polyspecificity reagent, FACS + sequencing; frameworks hold sequencing errors
# In short: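 Nanobodies from a synthetic yeast display library (Saccharomyces cerevisiae BJ5465), induced 36–48 hours with galactose, were stained 1 hour at 4 °C with 10% biotinylated, detergent-solubilized Sf9 membrane reagent, enriched on streptavidin microbeads, then FACS-sorted. Anti-HA (expression) and streptavidin (reagent binding) fluorescence set low and high (top ~1%) gates. Polyreactivity labels come from the gate of origin. Genes were colony-PCR amplified, MiSeq 2 × 250 sequenced and filtered by CDR length.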
row,Sequence,polyreactivity (PSR sort gate)
1,QVQLVESGGGLVQAGGSLRFSCAACGMTIWYYGMGSYRQAPGKERELLAAISKTGGRTYDADSVKGRFTISRDNAKNTVYLQMNRLKPEDTAVYNCNARYLLVSRYWENDYWGQATQVTVSS,low polyreactivity
2,QVQLVESGGGLVQAGGSLRLSCAASGFIFPGHAMGWYRQAPGKERELVAAISTSGGSTYYADSVKGRFTISRDNAKNTVYLQMNSLKPEDTAVYYCATKRPYVDDYGYWGQGTQVTVSS,high polyreactivity
3,QVQLVESGGGLVQAGGSLRLSCAASGIIFGSYAMGWYRQAPGKERELVAAISTSGGSTYYADSVKGRFTISRDNAKNTVYLQMNSLKPEDTAVYYCNKAGVYRDSSRYNYWGQGTQVTVSS,high polyreactivity
4,QVQLVESGGGLVQAGGSLRLSCAASGRTFYYNGMGWYRQAPGKERELVATITNGGSTNYADSVKGRFTISRDNAKITVYLQMNSLKPEETAVYYCAKTLASDCYDYWGQGTQVTVSS,low polyreactivity
5,QVQLVESGGGLVQAGGSLRLSCAASGSIFLKYAMGWYRQAPGKERELVATISRGGSTNYADSVKGRFTISRDNAKNTVYLLMNSLKPEYTAVYYCAAKYGRPYGTYGYWGQGTQVTVSS,high polyreactivity
6,QVQLVESGGGLVQAGGSLRLSCAASGSTFYLNAMGWYRQEPGKERELVAAISSGGRTYYADSVKGRFTISRDNAKNTVYFQKNSLKPEDTAVYYCAATRLYWKIFYGDGDYWGQGTQVTVSS,high polyreactivity
7,QVQLVESGGGLVQAGGSLRLSCAASGSTFYRYAMGWYRQAPGKERELVARITQNGGSTYYADSVKGRFTISRDNAKNTVYLQMNSLKPEDTAVYYCADRWISVLSYGKYDYWGQGTQVTVSS,high polyreactivity
8,QVQLVESGGGLVQAGGSLRLSCAASGRTFPYYAMGWYRQAPGKERELVAAISYSGGTTYYADSVKGRFTISRDNAKNTVYLQMNSLKPEDTAVYYCAAERAILSSDKQSLWRFDYWGQGTQVTVSS,low polyreactivity
9,QVQLVESGGGLVQAGGSLRLSCAASGITFWSNAMGWYRQAPGKERELVAAITSSGGSAYYADSVKGRFTISRDNAKNTVYLQMNSLKPEDTAVYYCAAPISRSAGWDSYDYWGQGTQVTVSS,low polyreactivity
10,QVQLVESGGGLVQAGGSLRLSCAASGLIFNYYAMGWYRQAPGKEREFVAAISGRGGNTYYADSVKVRFTISRDNAKTTVYLQINSLKPEDTAVYYCAARRYYSNREYDYWGQGTQVTVSS,high polyreactivity
11,QVQLVESGGGLVQAGGSLRLSCAASGSIFYSYAMGWYRQAPGKERELVADITITGSTYYADSVKGRFTISRDNAKNTVYLQMNSLKPEDTAVYYCDAVLAPGGYDYWGQGTQVTVSS,low polyreactivity
12,QVQLVESGGGLVQAGGSLRLSCAASGSIFYRNAMGWYRQAPGKERELVAAISWSGASTSYADSVKGRFTISPDNAKNTVYLQMNSLIPDATAVYYCNAGKYAYLWLKLFAPKLDYWGQGTQVTVSS,low polyreactivity
13,QVQLVESGGGLVQAGGSLRLSCAASGFTFYKYAMGWYRQAPGKEREFVAAISSSGDSTYYADSVKGRFTISRDNAKNTVYLQMNSLKPEDTAVYYCAARRRGTSTTWGQGTQVTVSS,high polyreactivity
14,QVQLVESGGGLVQAGGSLRLSCAASGRIFPAYVMGWYRQAHGKERELVATIDNGGGTYYADSVKGRFTISRDNAKNTVYLQMNSLKPEDTAVYYCARDRHVRWGLKMDYSGQGTQVTVSS,low polyreactivity
15,QVQLVESGGGLVQAGGSLRLSCAASGSTFYRYAKGRYRQPPGKERELVASITRNVGSTYYADSVKGRFTISRDNAKNTVYLQMKSVKPEDTAVYFCAAKSGSFVHGGYQTPVYGSDYWGQGSQVTVSS,high polyreactivity
16,QVQLVESGGGLVQAGGSLRLSCAASGSIFDENAMGWYRQAPGKERELVAAITSTDSTNYADSVKGRFTISRDNAKNTVYLQMNSLKPEDTAVYYCARDIKHATSYEALYYSDYDYWGQGTQVTVSS,low polyreactivity
17,QVQLVESGGGLVQAGGSLRLSCAASGSIFVGYAMGWYRQAPGKERELVAAISQRGGITYYADSVKGRFTISRDNAKNTVYLQMNSLKPEDTAVYYCAAPRYLSYVRRYDYWGQGTQVTVSS,high polyreactivity
18,QVQLVESGGGLVQAGGSLRLSCAASGIIFSGNAMGWYRQAPGKERELVAAITRGGRTYYADSVKGRFTISRDNAKNTVYLQMNSLKPEDTAVYYCAAGYPYSYRDYYYWGQGTQVTVSS,high polyreactivity
19,QVQLEESRGGLVQAGGSLRLSCAASGITFYTYAMGWYRQAPGKETELVAAITSRTGSTYYADSVKGRFTISRDNAKNTVYLQMNSLKPEDTAVYDCAADRTRGRDGSDYWGQGTQVTVSS,low polyreactivity
20,QVQLVESGGGLVQAGGSLRLSCAASGSTFSFYAMGWYRQAPGKERELVAAITWTTGSTYADSVKGRFTISRDNAKNTVYLQMNSLKPEDTAVYYCAAKKFRRSRDSYYWGPGTQVTVSS,high polyreactivity
21,QVQLVESGGGLVQAGGSLRLSCAASGLIFTKAMGWYRQAPGKEREFVAAINSSGGSTYADSVKGRFTISRDNAKNTVYLQMNSLKPEDTAVYYCAARVNYLYEYWGQGTQVTVSS,low polyreactivity
22,QVQLVESGGRLVQAGGSLRLSCAASGLTLFRYDQGWYRQAPGKERELVAAIDYGGGTYYADSVKGRFTISRDNAKNTVYLQMNSLKPEDTAVYYCAVEPEYKYYEGDYWGQGTQVTVSS,low polyreactivity

row,Sequence,polyreactivity (PSR sort gate)
1,QVQLVESGGGLVHAGGSLRLSCAASGSTEYNAMGWYRQSPGTQRELVAVITDSDGSTYYADSVKGRYTISRDNAKHTVYLQMNSLKREDTAVYYCAADDYAYSYGYWLTYDYWGQGPQVTVSS,low polyreactivity
2,QVQLVESGGGLVQAGGSLRLSCAASGITFGFNAMGWYRQAPGKERELVAAITWSVGRTYYADSVKGRFTISRDNAKNTVYLQMNSLKPEDTAVYYCAKEFVAGDDYFAYDYWGQGTQVTVSS,low polyreactivity
3,QVQLVESGGGIVQAGCSLRLSCAASGSIFSHNAKVGYRQAPGKERELVAAITKGGGRTYYADSVKGRFTISRDNAKNTVYLQMNSLKPEDNAVYYCATAGAHGRERDYWGQGTQVTVSS,high polyreactivity
4,QVQLVESGGGLVQAGGSLRLSCAASVNTFWYYTMGWYRQAPGKERELVAAITGGGRTYYADSVKGRFTISRDNAKNSVYLQMNSLKPEDTAVYYCAKPWGSDFGSWGQGTQVTVSS,low polyreactivity
5,QVQLVESGGGLVQAGGSLRLSCAASGFTFYSYAMGWYRQAPGKERELVAAISRSGGSTRYADSVKGRFTISRDNAKNTVYLQMNSLKPEDTAVYYCNAGKYRAYDYWGQGTQVTVSS,high polyreactivity
6,QVQLVESGGGLVQARGSLRLSCAASGRILWDYAMGWYRQAPGKEREWLAAIDWSAGSTYYADSVKGRFTISRDNAKNTVYLQMKSLKPEDTAVYYCNARSRVGNSGADYDYWGQGTQVTVSS,low polyreactivity
7,QVQLVESGGGLVQAGGSLRLICAASGSIFNYYAMGWYRQAPGKERELVAGITTSGGSTYYADSVKGRFTISRDNAKNTVHLQMNSLKPEDTAVYYCAAYDYISSTYFLDDYWGQGTQVTVSS,low polyreactivity
8,QVQLVESGGGLVQAGGSLRLSCAASGGTFTDYAMGWYRQAPGKERELVAAISSVGSTNYADSVKGRFTITRDNAQNTVYLQMNSLNPEDTAVYYCAADVYRYWISEYDDYWGQGTQVNVSS,low polyreactivity
9,QVQLVESGGGLVQAGGSLRLSCAASGSTLAGYAMGWYRQAPGKERELVAAIDWTGGSTTYADSVKGRFTISRDNAKNTVYLQMNSLKPEDTAVYYCNVDLGVNGDYWGQGTQVTVSS,low polyreactivity
10,QVQLVESGGGLVQAGGSLRLSCAASGSIFYLYAMGWYRQAPGKETEVVAAITSIGGSTYADSVKGRFTISRDNAKNTVYLQLNSLKPDDTAVYYCNTDVYPLTVQVQYYYWGQGTQVTVSS,low polyreactivity
11,QVQLVESGGGLVQAGGSLRLSCAASGRTFSVNAMGWYRQAPGKERELVAAISWSTGSTYYADSVKGRFTISRDNAKNTVYLQMNSLKPEDTAVYYCAKLYEYRRSRYRTYGYWGQGTQVTVSS,high polyreactivity
12,QVQLVESGGGLVQAGGSLRLSCAPSGYIIRQYAMGWYRQAPGKEREFVAAISQTGGSTYYADSVKGRFTISRDNAKNTVYLQMNSLKPEDTAVYYCAARYRGQRYRKLDYWGQGTQVTVSS,high polyreactivity
13,QVQLVESGGGLVQSGGSLRLSCAASGLIIGLYAMGWYRQAPGTERELVAAISDNGARTYYADSVKGRFTISRDYAKYTVYLQMNSLKPEDTAVDYCARDQSYHYNYWGQGTQVTVSS,low polyreactivity
14,QVQLVESGGGLVQAGGSLPLSCAASGIIFSYNAKGWDRQAPGKERELDAAIRENGGSTYYADSVKGRFTISRDNAKNTVYLQMNSLKPEDTAGYYCAVATSYYAGYEYDYWGQGTQVTVSS,low polyreactivity
15,QVQLVESGGGLVQAGGSLRLSCAASGSTFSRYAMGWYRQAPGKERELVAAISSRGGSTYYADSVKGRFTISRDNAKNTVYLQMNSLKPEDTAVYYCNALSSYQNHVYPYDYWGQGTQVTVSS,high polyreactivity
16,QVQLVESGGGLVQAGGSLRLSCAASGSTFSDYAMGWYRPAPGKERELVAAISSDGSTYYADSVKGRFTISRDNANNTVYLQMNILKPEDTAVYYCAKDVILVWPYATGRDYCGQGTQVTVSS,low polyreactivity
17,QVQLVESGGGLVQAGGSLRLSCAASGRTFDAYAMGWYRQAPGKERELVAAISSGGSTNYADSVKGRFTISRDHAKNTVYLQKNSLKPEDTAVYYCAAEYIQYLFYSVRVAYDYWGQGTQVTVSS,low polyreactivity
18,QVQLVESGGGLVQAGGSLRLSCAASGSIFADYAMGWYRQAPGKERELVAAITYTDDRTYYADSVKGRFTISRDNAKNTVYLQMNSLKPEDTAVYYCNRVFTCRYGYRYEYWGQGSQVTVSS,high polyreactivity
19,QEQLVESGGGLVQAGGSLRLICPASGSIFNIYAMPWSRQAPGKERELVATITGIADSTYYADSVKGRFTISRDNAMNTVYLQMNSLKPEDTAVYYCAAEKYVAEYDYWGHGTQVTVSS,low polyreactivity
20,QVQLVESGGGLVQAGGSLRLSCAASGSIFLVNAMGWYRQAPGKERELVAAITWIGGSTYYADSVKGRFTISRDNAKNTVYLQMNSLKPEDTAVYYCAAYGKRLGGGGYYWGQGTQVTVSS,high polyreactivity
21,QVQLVESGGGLVQAGGSLRLSCAASGRIFYVYALGWYRQAPGKERELVAAIDWNGGTTYYADSVKGRFTISRDNAKNTVYLQMNSLKPEDTAVYYCAVSLQGYNQVDYYYWGQGTQVTVSS,high polyreactivity
